The results in this text go back to US20090004190A1, “Rage Fusion Proteins And Methods Of Use” (priority 2006, published 2009).

“And” between values parts separate entries of the source, which are not always exact repeats. Equal values may be shown once.

In the experiment the test system is recurrent diabetes in NOD/LtJ mice with syngeneic islet transplants. The experiment can be described thus: Syngeneic islet transplantation in diabetic NOD mice. In kind it is in vivo, mouse. Conditions: 300 ug LD + 100 ug qod ip. The text has this:
Spontaneous autoimmune non-obese diabetic mice (NOD/LtJ) (12-25 weeks old) served as recipients for islet cells, while young pre-diabetic NOD/LtJ mice (6-7 weeks old) served as donors in syngeneic islet transplantation. Islets for transplantation were isolated as described above in Section A (Allogeneic Islet Transplantation).
Diabetic NOD/LtJ mice received islet grafts within 2 days of the diagnosis of diabetes. 500-600 freshly isolated islets (approximately 550 islet equivalents) from donor mice were picked up with an infusion set and transplanted into the subcapular space of the right kidney.
Test compounds were administered as soon as the islets were transplanted and continued for approximately 8 weeks.
Islet graft function was monitored by serial blood glucose measurements daily for the first 2 weeks after islet transplantation, followed by every other day thereafter. Reversal of diabetes was defined as blood glucose less than 200 mg/dl on two consecutive measurements. Percentage graft loss was determined when blood glucose exceeded 250 mg/dl on two consecutive measurements.

B1: TTP-4000: four domain RAGE fusion protein: human RAGE V and C1 domains with interdomain linkers (to residue 251) fused to human IgG1 CH2 and CH3; SEQ ID NO: 34/56 (protein, listed as Homo sapiens)
chain: QNITARIGEPLVLKCKGAPKKPPQRLEWKLNTGRTEAWKVLSPQGGGPWDSVARVLPNGSLFLPAVGIQDEGIFRCQAMNRNGKETKSNYRVRVYQIPGKPEIVDSASELTAGVPNKVGTCVSEGSYPAGTLSWHLDGKPLVPNEKGVSVKEQTRRHPETGLFTLQSELMVTPARGGDPRPTFSCSFSPGLPRHRALRTAPIQPRVWEPVPLEEVQLVVEPEGGAVAPPSVFLFPPKPKDTLMISRTPEVTCVVVDVSHEDPEVKFNWYVDGVEVHNAKTKPREEQYNSTYRVVSVLTVLHQDWLNGKEYKCKVSNKALPAPIEKTISKAKGQPREPQVYTLPPSRDELTKNQVSLTCLVKGFYPSDIAVEWESNGQPENNYKTTPPVLDSDGSFFLYSKLTVDKSRWQQGNVFSCSVMHEALHNHYTQKSLSLSPGK
Turning to B1, the “day of graft loss, Mean” value stood at 39.875 days. The “day of graft loss, each animal” value (blood glucose exceeded 250 mg/dl) is 38 day (2×) and 40 day and 43 day and 36 day and 45 day and 44 day and 35 day.
